The text below walks through data of doi:10.1101/2021.12.15.472832.

In this experiment the target is mouse PARP13 ZnF5-WWE1-WWE2 (residues 476 to 673) (mouse) (UniProt Q3UPF5). Description: SEC-MALS.

“mouse PARP13 ZnF5-WWE1-WWE2 (residues 476 to 673) (from UniProt Q3UPF5 476-673) (domain or fragment)”: the percent of the scattering mass in the dimer peak amounted to 4% and the stoichiometry N stood at 2.
